Measurements taken from the supplement of paper PMC12042874.
± gives the uncertainty stated by the source.

Experiment: amyloid nucleation score (Sup35N fusion, yeast selection) (log enrichment); library NNK1; higher = more nucleation; inactive = no reads after selection
Procedure, shortened: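 Sup35N fusions to peptides of 20 random codons were expressed in psi-negative yeast, induced 24 hours with 100 μM copper sulfate, and grown 7 days at 30°C on medium lacking adenine and uracil. Input and output plasmid inserts were sequenced by Illumina. The nucleation score is the DiMSum log enrichment of output over input reads, centred on the mode score of non-aggregating sequences. Sequences with under 100 input reads were excluded.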

| Substance | amyloid nucleation score |
| --- | --- |
| FGINVSIFTESLWLNYC | 4.52 ± 0.052 |
| FGIPST | 1.05 ± 0.34 |
| FGKLYF | -0.52 ± 0.98 |
| FGLIKWWDGVWWLSDLRRLH | 0.979 ± 0.65 |
| FGLRYSMCHHGRGHLKWLYT | 1.35 ± 0.65 |
| FGMSRW | 0.166 ± 0.78 |
| FGPRSDAVLVLYFSYVSPLD | -1.79 ± 2.4 |
| FGQNFEGIWPFVVKNRRLGQ | -1.12 ± 0.59 |
| FGREPIRIKTYQSLKNRSLI | -0.013 ± 0.24 |
| FGSMLNGVRYQ | 0.747 ± 0.66 |
| FGSRQVYWSRRMIVQGQVMK | -0.837 ± 0.71 |
| FGVYLACIHRKVLECDR | -0.241 ± 1 |
| FHALGCK | -0.38 ± 0.41 |
| FHLSDGDWYCHVESVTWRAC | 0.375 ± 0.87 |
| FHRVDGVDCRTMYEGV | -0.937 ± 0.72 |
| FHRWLDMWSLRRDFIGYGLG | 0.095 ± 0.77 |
| FHVDDHKWRLPDGELSRTAM | -0.341 ± 0.78 |
| FHVHSVLISE | -0.166 ± 0.84 |
| FHVLG | -1.35 ± 2.7 |
| FHYLMDYSRLNDIPLEDWGW | -0.411 ± 0.73 |
| FIASIG | 0.274 ± 0.79 |
| FICECCISLMIARHRALKPA | -1 ± 0.67 |
| FICQDVNICCSL | 7.305 ± 0.052 |
| FIDIACAHFGMKSCVVL | 1.32 ± 0.9 |
| FIFIDMRRSWDISVKDTRST | 6.802 ± 0.066 |

| Substance | amyloid nucleation score |
| --- | --- |
| FIFLRYGLYVFFASLNGQGY | -0.33 ± 0.83 |
| FIISRD | -0.028 ± 0.34 |
| FILSCISPPYVHCFYCLMFS | 0.854 ± 0.9 |
| FINHKHKQDQVI | 1.48 ± 0.49 |
| FISVGAFGYTMILNVFN | 5.445 ± 0.051 |
| FKCLARFWYADYLRFVFARQ | 0.297 ± 0.32 |
| FKFMSLGMSWAT | 1.61 ± 0.33 |
| FKRCKRIPDPQSIGSRHFGA | 0.568 ± 0.58 |
| FKSYCVGLHDYGP | 0.242 ± 0.99 |
| FKWLTVRGNDRGILDDG | -0.158 ± 0.52 |
| FLCLI | -2.52 ± 2.7 |
| FLDMVVMGCEFRPSGGFSSV | -0.156 ± 0.38 |
| FLENSTTSYNCYFNARWKCS | 0.389 ± 0.35 |
| FLFAMFNSISMKSAKLKWNR | 3.91 ± 0.086 |
| FLGLCS | -0.278 ± 0.4 |
| FLICDGSDRQMF | 0.315 ± 0.23 |
| FLILLGLVEDGTLYAVRTVG | -0.849 ± 0.8 |
| FLINGISSLCGLVVGLKFMD | 0.755 ± 0.34 |
| FLKFDTSMVVLGWTFLMESF | -0.023 ± 0.41 |
| FLKLFHLRGFLYG | inactive |
| FLLHWFEYGIPNVYRSRRD | inactive |
| FLLLCRSFFSARTILRCTMV | 0.631 ± 0.89 |
| FLLLFDQFSVLMCCAQVLCL | 4.56 ± 0.058 |
| FLLMVWDIYECVGNTLKRCA | 0.027 ± 0.42 |
| FLMGSYMFTTTVQISHDLMW | -0.354 ± 0.61 |

| Substance | amyloid nucleation score |
| --- | --- |
| FLNGKSGHAVVKLEGLMTNW | 0.447 ± 0.32 |
| FLQCNRNSVGRLVAHLCCAR | inactive |
| FLQLLGGLRSYKTRVCMWCV | -2.21 ± 2.7 |
| FLRPTGHSGCQFGAMSSKKG | 0.464 ± 1.2 |
| FLRTD | 0.171 ± 1.2 |
| FLTQPFAFIVLCGSKYTSSD | -0.463 ± 0.48 |
| FLVCSFNYGAAPFFGGFMHY | 0.679 ± 0.23 |
| FLVQVAWFLPAGGYGDNFCC | 0.049 ± 0.39 |
| FLVYGSSGFTAVLGPQCEEG | -0.777 ± 1.4 |
| FLWIYLSNTVLG | -0.535 ± 0.33 |
| FLWSIICSYSQLY | -0.201 ± 0.35 |
| FMATNTKAMGPLRSAK | 0.224 ± 0.58 |
| FMEVWRYWRFIVSRERFNHI | -0.207 ± 0.78 |
| FMIHMLTGSLLRVNDCNLGE | 0.987 ± 0.64 |
| FMLERYFQ | -0.157 ± 0.24 |
| FMLVAG | 0.746 ± 0.53 |
| FMRDFSGCSNDRFDGDLALC | 0.024 ± 0.62 |
| FMVKHSDDRGYLCFLGIEKV | 0.209 ± 0.93 |
| FMYAQMFPTAVQDYVK | inactive |
| FMYTDPDSVPQGSDTTSLAL | -0.129 ± 0.46 |
| FNDRPVWVFCLRWWDSSVNS | -0.857 ± 0.84 |
| FNFEFLTCL | inactive |
| FNKQFCK | 0.776 ± 0.44 |
| FNLRKRRA | 0.205 ± 0.38 |
| FNRENGRNFALVVCLLDRFG | 1.41 ± 0.17 |

| Substance | amyloid nucleation score |
| --- | --- |
| FNRNRIGGEIVMSNNYMYHS | 1.58 ± 0.33 |
| FNSARGSLVPRFPRGEQR | -0.787 ± 1.9 |
| FNSRAICGEIVNIPHQSPGD | 1.16 ± 0.67 |
| FNVGLPLAGIISTKTD | -1.83 ± 2.7 |
| FNWLTVSAFHQHRTLTMNMY | 0.216 ± 0.3 |
| FNYHRRPLNYISNRQYGGLS | inactive |
| FNYVILTFWVKYTFSAHCV | -0.271 ± 0.64 |
| FNYYYLVEWGDGASIRIASI | -0.473 ± 1.4 |
| FPCALSYAGMVSTVRALRKF | 0.228 ± 0.8 |
| FPFFLMCMSSGFYSV | 2.35 ± 0.25 |
| FPLCSCHCYSSTWMCYRASL | 0.048 ± 0.97 |
| FPLGTQDRIIRFVESQYDSM | -0.516 ± 1.7 |
| FPRHYCTYWG | -0.157 ± 0.36 |
| FQARHIFHVFLVSSSRVRLT | 1.65 ± 0.47 |
| FQCVILVPG | 1.03 ± 0.74 |
| FQGMYWNGFSSSSMSAATPR | 0.157 ± 0.52 |
| FQWNAANYANSYPCKLLCSA | 1.78 ± 0.21 |
| FQYGLGMRVRWKDAMLIRTR | inactive |
| FREFWPGLYYTTPYKLSNHC | -2.14 ± 1.1 |
| FRKEMIFYS | 1.54 ± 0.47 |
| FRKTMLWVLVVMGPIFTGSR | 0.548 ± 0.87 |
| FRNLTVGAWRPMPGERMPIG | -0.182 ± 0.42 |
| FRSGTHWSMDFGHAKEIRR | 1.39 ± 0.14 |
| FRSTPWNPMSTELVIFSPSV | 1.16 ± 0.43 |
| FRVMILLLTEMWSMESNRDL | 3.4 ± 0.14 |

| Substance | amyloid nucleation score |
| --- | --- |
| FRVYFIVRVPYI | 1.36 ± 0.52 |
| FRWRSSGGLVCFLDAVVVSV | -0.249 ± 0.38 |
| FSALPTLASGLGFGR | 0.604 ± 0.73 |
| FSDVCGPSPLCW | 0.142 ± 0.44 |
| FSFDLLSVESGITNV | -0.054 ± 0.82 |
| FSFVSECGLAGFYPRE | 0.35 ± 0.55 |
| FSGGGNITACGCV | -0.385 ± 0.65 |
| FSGVTMR | 1.7 ± 0.32 |
| FSHIELLERAVLMSRVRFLW | -0.514 ± 1.5 |
| FSHLKYNSVHFIPLRDFDSL | 0.938 ± 0.41 |
| FSLCDSKSKWLLYCSGSFNL | 2.69 ± 0.14 |
| FSPRIALVFRKYQGMASQPP | 4.45 ± 0.061 |
| FSRCCTFSSDYFNARCIERN | 1.22 ± 0.23 |
| FSRFWISSKHT | -1.33 ± 1.3 |
| FSSCLTMRLV | -0.365 ± 1.6 |
| FSSSTRSLNNPLL | 0.006 ± 0.44 |
| FSYCEWRDKCCERWSFLDNQ | 1.11 ± 0.49 |
| FTAWP | -0.242 ± 0.3 |
| FTMFFPMGSVC | 0.292 ± 0.64 |
| FTRKEVVPMWDKEDRVCIGD | 0.02 ± 0.74 |
| FTRWLSFKTYG | -0.283 ± 0.66 |
| FTSFFVSV | -1.91 ± 1.9 |
| FTTDVERSVLFEVNLWSNGW | 5.33 ± 0.066 |
| FTVLVELALFMRSCLSRGFN | -0.261 ± 0.27 |
| FVCWVGTGLMIRVAIDQCWR | -0.202 ± 0.31 |

| Substance | amyloid nucleation score |
| --- | --- |
| FVEMVYFNECCIPKFDIEYV | 1.6 ± 0.17 |
| FVGGPPMIQYVVPV | 0.326 ± 0.42 |
| FVLRLS | inactive |
| FVLRV | 0.423 ± 0.47 |
| FVMSHSL | 0.987 ± 0.43 |
| FVNFGFAGIASWHFVLMFIK | 0.1 ± 0.27 |
| FVSTVYLY | 5.35 ± 0.064 |
| FVTIWWLYRTCIFLSTVRTT | 1.5 ± 0.26 |
| FVTMAVWGLYTCFKVHKGIV | -0.4 ± 0.78 |
| FVVSLECTTRRVGLGALC | inactive |
| FVVVVGSHLGDGFCDCWVNC | 2.03 ± 0.24 |
| FVYLVHLLMNGRVIKLFRDM | -0.372 ± 0.27 |
| FWCMALK | -1.05 ± 2.4 |
| FWDVTPWCHSRDCAVLFSRA | -1.37 ± 2.7 |
| FWEYSSRNPQSHYTVLRSKV | -0.509 ± 0.32 |
| FWREHTMR | inactive |
| FWVDCSRVVRLKIQFNLV | 0.864 ± 0.42 |
| FWVFAITFTAERKLQADDLF | 1.84 ± 0.15 |
| FYEASDRGERLEQKLKLTVL | 1.51 ± 0.49 |
| FYFSASATIL | -0.093 ± 0.81 |
| FYIILNVLFPRQVTCSDK | 5.7 ± 0.075 |
| FYITQTEGQLLLCR | -0.148 ± 0.55 |
| FYMGGDCVYNECQGEIRLSL | -0.234 ± 0.7 |
| FYPIYGFRWTIFYQPALYNL | -1.08 ± 1.7 |
| FYPLF | 1.27 ± 0.66 |

| Substance | amyloid nucleation score |
| --- | --- |
| FYVSLRWV | 0.105 ± 0.45 |
| FYVVRGHGHCWM | 0.68 ± 0.33 |
| FYYYSSCHYWYC | -0.13 ± 0.79 |
| GAAQWMKNSTIGHARFIADL | 0.2 ± 0.39 |
| GAICQGLINDVVGRGDGMMR | 1.19 ± 0.97 |
| GALVCRCDGCYKSMGKAIMA | -0.243 ± 0.56 |
| GCGFS | -0.126 ± 0.4 |
| GCIECEGAGCAPIYGVEWLD | 0.122 ± 0.84 |
| GCIWWPTDRPLLLSPAMSYS | 0.133 ± 0.37 |
| GCLAPLLIDLCCFQMRNSSN | 0.05 ± 0.49 |
| GCRMWFAWQVGVILMVDMFI | 0.307 ± 0.81 |
| GCSVVNMADMG | 1.29 ± 0.45 |
| GCVVI | 0.258 ± 0.26 |
| GDKSFSYCSLCCLFWARLPR | 5.83 ± 0.064 |
| GEGQQSGVVSNLSGYRSNS | 0.418 ± 0.51 |
| GELLTLHITGLNEVLVNTSM | -0.21 ± 0.31 |
| GELWLAHLLLRSRVRTHRCP | 5.78 ± 0.068 |
| GENPGQDYASGFLNVFKNYL | 1.01 ± 0.54 |
| GFCYM | 0.997 ± 0.35 |
| GFDKLVGPCGYGLRRGSLWR | 0.781 ± 0.52 |
| GFGLVRIPIMFNEAPEVVSK | -0.133 ± 0.46 |
| GFISIGP | -0.068 ± 0.29 |
| GFKGQRNNAIQVMGKKNRLQ | -0.238 ± 0.59 |
| GFKVVDTAWFL | -0.116 ± 0.27 |
| GFLIGRSD | 0.022 ± 0.43 |
